Measurements as given in US20170088603A1.

Each substance was assayed against Human FcRn with human β2M on MDCK II clone 15 cells (human) (UniProt P55899) (assay: cell-based or functional assay).

Chain of IgG4 Fc IgM tp L309 (P01861 other isoform, or with tags, fused parts or gaps limits assumed): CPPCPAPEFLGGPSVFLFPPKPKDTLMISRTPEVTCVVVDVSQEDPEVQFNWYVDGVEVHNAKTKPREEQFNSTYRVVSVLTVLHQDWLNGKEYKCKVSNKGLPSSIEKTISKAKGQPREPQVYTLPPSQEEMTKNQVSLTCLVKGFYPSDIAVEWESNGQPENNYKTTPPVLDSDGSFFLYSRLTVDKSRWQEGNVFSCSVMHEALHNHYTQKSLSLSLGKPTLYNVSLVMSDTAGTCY

Substance | Blockade of IgG intracellular uptake EC50 | Blockade of IgG recycling EC50 | Blockade of IgG recycling (% inhibition at 100 µg/ml)
IgG1 IgM tail-piece, T307A (Fc fusion) | 0.54 µg/mL | 0.35 µg/mL | –
IgG1 IgM tail-piece, V308F (Fc fusion) | 0.12 µg/mL | 0.073 µg/mL | –
IgG1 IgM tail-piece, V308P (Fc fusion) | 0.34 µg/mL | 0.55 µg/mL | –
IgG4 IgM tail-piece, T307A (Fc fusion) | 0.5 µg/mL | – | –
IgG4 IgM tail-piece, V308P (Fc fusion) | 0.51 µg/mL | 0.42 µg/mL | –

Further lines, results first:

Blockade of IgG intracellular uptake EC50 | Blockade of IgG recycling EC50 | Blockade of IgG recycling (% inhibition at 100 µg/ml) | Substance
4.4 µg/mL | 0.33 µg/mL | – | IgG1 Fc IgM tp L309 (from UniProt P0DOX5 228-449) (Fc fusion)
– | – | 45 | IgG1 IgM tail-piece, H310L (Fc fusion)
5.9 µg/mL | 1 µg/mL | – | IgG4 Fc IgM tp L309 (from UniProt P01861 106-325) (Fc fusion)
0.42 µg/mL | 0.56 µg/mL | – | IgG4 IgM tail-piece, V308F (Fc fusion)

What follows are substances tested against Human FcRn with human β2M on MDCK II clone 15 cells (human) (UniProt P55899) (assay: not given).

Substance | EC50, inhibition of FcRn mediated IgG recycling (cell lysates), percentage inhibition relative to the positive control; blocked ligand biotinylated human IgG [upper panel (cell lysates]
IgG1 Fc IgM tp L309 (from UniProt P0DOX5 228-449) (Fc fusion) | 0.37 µg/mL
